Experiment [1] has as its target Fisp12/mCTGF (mouse) (UniProt P29268). The experiment is described as follows: solid-phase binding isotherm: varied RGD-affinity purified αIIbβ3 on immobilized Fisp12/mCTGF, detected with 125I-mAb15; saturable.
Experiment [2] has as its target integrin α1 subunit on 1064SK fibroblasts (human) (UniProt P56199). The experiment is described as follows: cell-based or functional assay.
Experiment [3] addresses integrin α2 subunit on 1064SK fibroblasts (human) (UniProt P17301). As to the kind of experiment: cell-based or functional assay.
Experiment [4] concerns the target integrin α3 subunit on 1064SK fibroblasts (human) (UniProt P26006). As to the kind of experiment: cell-based or functional assay.
Experiment [5] concerns the target integrin α4 subunit on 1064SK fibroblasts (human) (UniProt P13612). The experiment is described as follows: cell-based or functional assay.
Experiment [6] has as its target integrin α5β1 (fibronectin receptor) on 1064SK fibroblasts (human) (UniProt P08648). As to the kind of experiment: cell-based or functional assay.
In experiment [7] the target is integrin α6β1 on human cells (1064SK fibroblasts, endothelial cells) (human) (UniProt P23229). The experiment is described as follows: cell-based or functional assay.
Chain of integrin α6β1 on human cells (1064SK fibroblasts, endothelial cells) (human) (P23229 24-1130, chain 1 of 2): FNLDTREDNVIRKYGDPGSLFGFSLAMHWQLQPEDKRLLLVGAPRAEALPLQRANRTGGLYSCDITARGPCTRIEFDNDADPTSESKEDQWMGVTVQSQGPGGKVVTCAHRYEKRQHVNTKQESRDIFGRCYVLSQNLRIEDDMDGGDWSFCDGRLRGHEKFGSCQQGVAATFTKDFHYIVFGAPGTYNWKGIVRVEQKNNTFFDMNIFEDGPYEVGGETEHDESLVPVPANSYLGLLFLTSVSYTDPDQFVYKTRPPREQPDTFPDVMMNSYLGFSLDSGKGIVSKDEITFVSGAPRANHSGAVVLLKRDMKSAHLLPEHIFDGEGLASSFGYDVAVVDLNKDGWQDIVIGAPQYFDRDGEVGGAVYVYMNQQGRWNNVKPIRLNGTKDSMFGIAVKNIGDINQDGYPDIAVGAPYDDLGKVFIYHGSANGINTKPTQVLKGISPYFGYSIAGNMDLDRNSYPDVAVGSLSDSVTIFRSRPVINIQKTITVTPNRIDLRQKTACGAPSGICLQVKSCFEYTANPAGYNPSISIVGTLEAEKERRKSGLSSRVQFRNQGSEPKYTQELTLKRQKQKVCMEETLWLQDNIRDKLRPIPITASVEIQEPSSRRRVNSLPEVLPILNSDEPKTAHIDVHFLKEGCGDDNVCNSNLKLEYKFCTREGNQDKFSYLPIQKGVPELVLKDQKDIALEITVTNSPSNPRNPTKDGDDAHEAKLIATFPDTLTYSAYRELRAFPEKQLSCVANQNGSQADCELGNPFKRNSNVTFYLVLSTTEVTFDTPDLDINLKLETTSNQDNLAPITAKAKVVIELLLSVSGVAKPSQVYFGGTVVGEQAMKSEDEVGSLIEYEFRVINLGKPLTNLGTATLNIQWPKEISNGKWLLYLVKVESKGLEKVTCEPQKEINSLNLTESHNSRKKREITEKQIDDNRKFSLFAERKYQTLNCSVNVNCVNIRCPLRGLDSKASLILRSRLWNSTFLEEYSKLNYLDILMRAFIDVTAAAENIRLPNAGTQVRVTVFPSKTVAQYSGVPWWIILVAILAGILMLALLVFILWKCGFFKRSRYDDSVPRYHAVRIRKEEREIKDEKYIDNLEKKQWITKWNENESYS
Chain of integrin α6β1 on human cells (1064SK fibroblasts, endothelial cells) (human) (P05556 21-798, chain 2 of 2, further chain): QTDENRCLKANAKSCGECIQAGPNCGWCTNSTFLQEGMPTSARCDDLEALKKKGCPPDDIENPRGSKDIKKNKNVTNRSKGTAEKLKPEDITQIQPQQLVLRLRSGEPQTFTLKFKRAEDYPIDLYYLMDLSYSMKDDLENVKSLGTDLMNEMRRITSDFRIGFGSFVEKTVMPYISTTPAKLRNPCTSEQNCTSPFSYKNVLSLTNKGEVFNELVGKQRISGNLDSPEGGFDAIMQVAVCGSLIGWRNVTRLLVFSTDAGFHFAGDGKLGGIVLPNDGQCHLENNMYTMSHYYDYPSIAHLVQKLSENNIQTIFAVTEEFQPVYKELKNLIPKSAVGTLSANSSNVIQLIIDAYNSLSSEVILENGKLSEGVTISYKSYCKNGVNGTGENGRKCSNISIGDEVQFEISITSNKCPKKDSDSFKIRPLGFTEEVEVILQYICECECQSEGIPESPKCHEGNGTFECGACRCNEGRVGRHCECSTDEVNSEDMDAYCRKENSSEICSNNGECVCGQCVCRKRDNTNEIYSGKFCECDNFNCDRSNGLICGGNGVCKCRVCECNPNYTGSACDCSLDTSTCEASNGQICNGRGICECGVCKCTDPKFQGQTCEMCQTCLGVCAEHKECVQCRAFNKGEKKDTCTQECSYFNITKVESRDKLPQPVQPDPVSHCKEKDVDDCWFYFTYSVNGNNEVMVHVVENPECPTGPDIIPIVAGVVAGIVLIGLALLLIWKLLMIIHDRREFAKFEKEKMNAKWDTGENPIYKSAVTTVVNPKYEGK
Experiment [8] addresses integrin αv subunit (αv integrins αvβ1, αvβ3, αvβ5) on 1064SK fibroblasts (human) (UniProt P06756). As to the kind of experiment: cell-based or functional assay.
The target of experiment [9] is integrin β1 subunit (β1 integrins) on 1064SK fibroblasts (human) (UniProt P05556). The experiment is described as follows: cell-based or functional assay.
Chain of integrin β1 subunit (β1 integrins) on 1064SK fibroblasts (human) (P05556 21-798): as the sequence (P05556 21-798, chain 2 of 2, further chain) above
Experiment [10] deals with αvβ3 integrin on human cells (HUVE cells, fibroblasts, platelets) (human) (UniProt P06756). As to the kind of experiment: cell-based or functional assay.

Chain of integrin α2 subunit on 1064SK fibroblasts (human) (P17301 30-1181): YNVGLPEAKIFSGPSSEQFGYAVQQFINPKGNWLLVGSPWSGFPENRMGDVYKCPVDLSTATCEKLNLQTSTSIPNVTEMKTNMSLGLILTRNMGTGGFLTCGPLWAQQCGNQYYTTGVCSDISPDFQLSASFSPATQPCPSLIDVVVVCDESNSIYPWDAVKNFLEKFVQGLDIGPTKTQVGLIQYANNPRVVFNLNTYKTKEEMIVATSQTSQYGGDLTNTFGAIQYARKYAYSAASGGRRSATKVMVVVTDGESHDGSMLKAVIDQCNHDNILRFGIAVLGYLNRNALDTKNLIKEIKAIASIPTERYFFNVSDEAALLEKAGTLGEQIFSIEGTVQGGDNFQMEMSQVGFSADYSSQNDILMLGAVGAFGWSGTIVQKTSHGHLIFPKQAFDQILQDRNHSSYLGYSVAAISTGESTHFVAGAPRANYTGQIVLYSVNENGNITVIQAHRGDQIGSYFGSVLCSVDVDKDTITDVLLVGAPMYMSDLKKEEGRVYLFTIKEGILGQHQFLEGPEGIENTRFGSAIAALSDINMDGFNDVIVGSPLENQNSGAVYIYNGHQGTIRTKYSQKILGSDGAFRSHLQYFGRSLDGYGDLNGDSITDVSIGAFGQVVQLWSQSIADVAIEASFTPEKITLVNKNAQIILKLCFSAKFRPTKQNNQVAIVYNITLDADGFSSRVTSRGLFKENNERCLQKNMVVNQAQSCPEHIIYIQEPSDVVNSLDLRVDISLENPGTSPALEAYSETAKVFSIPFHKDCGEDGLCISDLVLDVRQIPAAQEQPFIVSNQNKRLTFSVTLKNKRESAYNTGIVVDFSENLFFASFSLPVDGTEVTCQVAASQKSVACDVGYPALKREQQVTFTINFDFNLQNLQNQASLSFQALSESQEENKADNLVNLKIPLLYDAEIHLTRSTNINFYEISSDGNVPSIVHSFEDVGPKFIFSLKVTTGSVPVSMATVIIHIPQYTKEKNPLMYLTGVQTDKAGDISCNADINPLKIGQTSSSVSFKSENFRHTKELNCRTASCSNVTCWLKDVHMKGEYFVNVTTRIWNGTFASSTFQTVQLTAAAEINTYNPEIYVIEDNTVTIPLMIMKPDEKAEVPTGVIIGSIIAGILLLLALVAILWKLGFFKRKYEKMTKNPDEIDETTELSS
Chain of integrin α5β1 (fibronectin receptor) on 1064SK fibroblasts (human) (P08648 42-1049, chain 1 of 2): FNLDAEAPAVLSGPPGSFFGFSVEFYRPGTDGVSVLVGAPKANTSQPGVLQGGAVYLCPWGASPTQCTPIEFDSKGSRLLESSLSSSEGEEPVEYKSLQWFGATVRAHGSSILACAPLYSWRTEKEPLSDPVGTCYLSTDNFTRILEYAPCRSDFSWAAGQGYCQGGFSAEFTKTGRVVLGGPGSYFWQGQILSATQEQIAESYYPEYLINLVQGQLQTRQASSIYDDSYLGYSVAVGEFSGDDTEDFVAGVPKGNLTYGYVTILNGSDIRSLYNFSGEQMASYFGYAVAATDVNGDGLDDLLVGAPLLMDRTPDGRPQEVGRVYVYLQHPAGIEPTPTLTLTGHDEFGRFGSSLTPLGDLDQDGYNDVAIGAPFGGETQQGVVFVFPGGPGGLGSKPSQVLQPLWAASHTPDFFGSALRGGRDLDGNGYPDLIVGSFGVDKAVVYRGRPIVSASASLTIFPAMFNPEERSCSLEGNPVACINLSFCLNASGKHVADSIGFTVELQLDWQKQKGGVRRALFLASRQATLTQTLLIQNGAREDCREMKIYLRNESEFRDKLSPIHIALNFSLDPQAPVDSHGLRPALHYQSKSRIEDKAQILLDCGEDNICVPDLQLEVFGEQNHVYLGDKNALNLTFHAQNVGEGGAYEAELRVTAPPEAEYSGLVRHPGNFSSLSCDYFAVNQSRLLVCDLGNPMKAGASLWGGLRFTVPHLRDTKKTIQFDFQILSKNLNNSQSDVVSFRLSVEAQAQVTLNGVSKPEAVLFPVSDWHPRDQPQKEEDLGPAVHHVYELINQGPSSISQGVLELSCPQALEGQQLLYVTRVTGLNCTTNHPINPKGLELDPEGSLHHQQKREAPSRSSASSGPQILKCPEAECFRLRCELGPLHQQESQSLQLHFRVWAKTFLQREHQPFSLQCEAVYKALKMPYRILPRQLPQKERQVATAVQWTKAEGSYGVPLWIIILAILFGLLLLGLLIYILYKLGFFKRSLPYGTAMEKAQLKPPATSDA
Chain of integrin α5β1 (fibronectin receptor) on 1064SK fibroblasts (human) (P05556 21-798, chain 2 of 2, further chain): as the sequence (P05556 21-798, chain 2 of 2, further chain) above
Chain of Fisp12/mCTGF (mouse) (P29268 26-348 E161K limits assumed, form in doubt): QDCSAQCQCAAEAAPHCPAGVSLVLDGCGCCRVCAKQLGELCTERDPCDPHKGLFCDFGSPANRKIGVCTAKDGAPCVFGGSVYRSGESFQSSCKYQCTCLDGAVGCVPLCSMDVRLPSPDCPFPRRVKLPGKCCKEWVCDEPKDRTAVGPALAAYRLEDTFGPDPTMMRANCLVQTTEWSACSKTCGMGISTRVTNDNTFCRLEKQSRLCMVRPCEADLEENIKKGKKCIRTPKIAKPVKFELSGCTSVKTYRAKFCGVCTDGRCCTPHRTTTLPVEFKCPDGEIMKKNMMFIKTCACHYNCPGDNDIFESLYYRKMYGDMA

In [1], “activated αIIbβ3 (RGD-affinity purified from human platelet lysates) (from UniProt P08514 32-1039; P05106 27-788) (receptor)” displayed a half-saturation concentration of 15 nM.
Turning to “human Cyr61 (from UniProt O00622 25-381) (ligand)”, the A620, 1064SK adhesion to Cyr61 (2 µg/ml) after anti-α1 antibody (40 µg/ml); control without antibody 0.58 in experiment [2] is 0.54 A620. In [3], this substance gave an A620, 1064SK adhesion to Cyr61 (2 µg/ml) after anti-α2 antibody (40 µg/ml); control without antibody 0.58 of 0.6 A620. In experiment [4], this substance displayed an A620, 1064SK adhesion to Cyr61 (2 µg/ml) after anti-α3 antibody (40 µg/ml); control without antibody 0.58 of 0.55 A620. Moreover, the A620, 1064SK adhesion to Cyr61 (2 µg/ml) after anti-α4 antibody (40 µg/ml); control without antibody 0.58 in experiment [5] amounted to 0.56 A620. The A620, 1064SK adhesion to Cyr61 (2 µg/ml) after anti-α5 antibody (40 µg/ml); no addition 0.75 in experiment [6] came out at 0.77 A620. In experiment [7], this substance yielded an A620, 1064SK adhesion to Cyr61 (2 µg/ml) after anti-α6 antibody (20 µg/ml); 0.53 without antibody of 0.08 A620; a percent inhibition of 1064SK adhesion to Cyr61 by anti-α6 antibody of over 80%; a percent inhibition of 1064SK adhesion to wild-type Cyr61 by anti-α6 antibody (20 µg/ml) of 78%. The same substance yielded an A620, 1064SK adhesion to Cyr61 (2 µg/ml) after anti-αv antibody (40 µg/ml); no addition 0.75 in experiment [8] of 0.73 A620. In [9], this substance showed an A620, 1064SK adhesion to Cyr61 (2 µg/ml) after anti-β1 antibody JB1A (50 µg/ml); 0.53 without antibody of 0.14 A620 and a percent inhibition of 1064SK adhesion to Cyr61 by anti-β1 antibody JB1A of 75%. The same substance gave a relative binding capacity of HUVE cells on wild-type Cyr61 (5 µg/ml) after anti-αvβ3 antibody LM609 (40 µg/ml); no pre-incubation = 100 in experiment [10] of 42%.
In experiment [7], mouse laminin (ligand) returned an A620, 1064SK adhesion to laminin (5 µg/ml) after anti-α6 antibody; 0.62 without antibody of 0.48 A620 and a percent inhibition of 1064SK adhesion to laminin by anti-α6 antibody of 22%.
In experiment [9], “rat tail Type-I collagen (from UniProt P02454 152-1207; P02466 86-1125) (ligand)” registered an A620, 1064SK adhesion to type I collagen (2 µg/ml) after anti-β1 antibody JB1A; 0.56 without antibody of 0.21 A620 and a percent inhibition of 1064SK adhesion to type I collagen by anti-β1 antibody JB1A of 62%.

(Values after patent EP1254174B1.)
